In patent publication US20250066745A1, “MUTANTS AND USE THEREOF” (BGI SHENZHEN, priority 2021, published 2025):
Substitutions are numbered along the chain they refer to. In names and notes the source's numbering stands.

B1: F26V N27Y V29N A30D V31D D32L S33R A36R T37W L40Y K180R: Gaussia luciferase mutant (protein)
chain: MGVKVLFALICIAVAEAKPTENNEDVYINDDLRNFRWTDYDADRGKLPGKKLPLEVLKEMEANARKAGCTRGCLICLSHIKCTPKMKKFIPGRCHTYEGDKESAQGGIGEAIVDIPEIPGFKDLEPMEQFIAQVDLCVDCTTGCLKGLANVQCSDLLKKWLPQRCATFASKIQGQVDKIRGAGGD
modifications: SIGNAL (1)..(17)
notes: Gaussia luciferase mutant
B2: A17V H79K P84A E102D S103T E110P L124M: Gaussia luciferase mutant (protein)
chain: MGVKVLFALICIAVAEVKPTENNEDFNIVAVASNFATTDLDADRGKLPGKKLPLEVLKEMEANARKAGCTRGCLICLSKIKCTAKMKKFIPGRCHTYEGDKDTAQGGIGPAIVDIPEIPGFKDMEPMEQFIAQVDLCVDCTTGCLKGLANVQCSDLLKKWLPQRCATFASKIQGQVDKIKGAGGD
modifications: SIGNAL (1)..(17)
notes: Gaussia luciferase mutant
B3: H79K P84K E102K S103I V138E: Gaussia luciferase mutant (protein)
chain: B2 chain with V17A, A84K, D102K, T103I, P110E, M124L, V138E
modifications: SIGNAL (1)..(17)
notes: Gaussia luciferase mutant
B4: H79K P84L S103T A104G E110A: Gaussia luciferase mutant (protein)
chain: B2 chain with V17A, A84L, D102E, A104G, P110A, M124L
modifications: SIGNAL (1)..(17)
notes: Gaussia luciferase mutant
B5: H79K P84L V138D: Gaussia luciferase mutant (protein)
chain: B2 chain with V17A, A84L, D102E, T103S, P110E, M124L, V138D
modifications: SIGNAL (1)..(17)
notes: Gaussia luciferase mutant
B6: H79K P84A E102S S103I A104G E110P L124M: Gaussia luciferase mutant (protein)
chain: B2 chain with V17A, D102S, T103I, A104G
modifications: SIGNAL (1)..(17)
notes: Gaussia luciferase mutant
B7: A42G Q152C T167G S170T G174N K178S A182Y G183A: Gaussia luciferase mutant (protein)
chain: MGVKVLFALICIAVAEAKPTENNEDFNIVAVASNFATTDLDGDRGKLPGKKLPLEVLKEMEANARKAGCTRGCLICLSHIKCTPKMKKFIPGRCHTYEGDKESAQGGIGEAIVDIPEIPGFKDLEPMEQFIAQVDLCVDCTTGCLKGLANVCCSDLLKKWLPQRCAGFATKIQNQVDSIKGYAGD
modifications: SIGNAL (1)..(17)
notes: Gaussia luciferase mutant
B8: F26R N27D V29E A30G V31I A32D S33N A36N T37A L40R: Gaussia luciferase mutant (protein)
chain: MGVKVLFALICIAVAEAKPTENNEDRDIEGIDNNFNATDRDADRGKLPGKKLPLEVLKEMEANARKAGCTRGCLICLSHIKCTPKMKKFIPGRCHTYEGDKESAQGGIGEAIVDIPEIPGFKDLEPMEQFIAQVDLCVDCTTGCLKGLANVQCSDLLKKWLPQRCATFASKIQGQVDKIKGAGGD
modifications: SIGNAL (1)..(17)
notes: Gaussia luciferase mutant
B9: F26R N27Y V29E A30G A32D S33R A36G T37M L40P: Gaussia luciferase mutant (protein)
chain: B8 chain with D27Y, I31V, N33R, N36G, A37M, R40P
modifications: SIGNAL (1)..(17)
notes: Gaussia luciferase mutant
B10: F26S N27Y V29C A32G S33E A36Q T37G L40T: Gaussia luciferase mutant (protein)
chain: B8 chain with R26S, D27Y, E29C, G30A, I31V, D32G, N33E, N36Q, A37G, R40T
modifications: SIGNAL (1)..(17)
notes: Gaussia luciferase mutant
B11: F26Y N27Y V29A A30G S33V A36V T37S L40G: Gaussia luciferase mutant (protein)
chain: B8 chain with R26Y, D27Y, E29A, I31V, D32A, N33V, N36V, A37S, R40G
modifications: SIGNAL (1)..(17)
notes: Gaussia luciferase mutant
B12: A30G V31I A32V S33G A36N T37D L40R: Gaussia luciferase mutant (protein)
chain: B8 chain with R26F, D27N, E29V, D32V, N33G, A37D
modifications: SIGNAL (1)..(17)
notes: Gaussia luciferase mutant
B13: F26T N27D V29P A30G V31I A32G S33I A36I T37L L40I: Gaussia luciferase mutant (protein)
chain: B8 chain with R26T, E29P, D32G, N33I, N36I, A37L, R40I
modifications: SIGNAL (1)..(17)
notes: Gaussia luciferase mutant
B14: F26R V29E A30G V31L A36D T37E L40S K159: Gaussia luciferase mutant (protein)
chain: B8 chain with D27N, I31L, D32A, N33S, N36D, A37E, R40S

What was measured:
Assay type in all cases: biochemical
Set-up in all cases: key to Activity of mutant relative to wild-type Gaussia luciferase without the signal peptide: ratio of mutant luminescence intensity to wild-type Gaussia luciferase
[1] = Luminescence activity assay of purified Gaussia luciferase mutants on coelenterazine derivative ZS2; conditions: Substrate ZS2 (Table 16)
Procedure, shortened: (§1)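 Readout: luminescence intensity, as ratio to signal-peptide-free wild-type enzyme. Enzyme 1 μg/mL, substrate 100 μM stock, 10 μL + 90 μL; buffer 50 mM Tris-HCl pH 8.0, 100 mM NaCl, 0.1% Tween-20.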

[2] = Luminescence activity assay of purified Gaussia luciferase mutants on coelenterazine; conditions: Substrate CTZ (Table 16)
Procedure, shortened: as §1

[3] = Luminescence activity assay of purified Gaussia luciferase mutants on fluoro-coelenterazine; conditions: Substrate f-CTZ (Table 16)
Procedure: In this Example, the protein concentration was determined with a BCA quantitative kit (Thermo Scientific™ Pierce™ BCA Protein Assay Kit) accurately. The purified luciferase obtained in Example 5 was diluted with diluent (50 mM Tris-HCl, pH 8.0, 100 mM NaCl, 0.1% (v/v) Tween-20) to 1 μg/mL. The diluted luciferase, taken for 10 μL, was moved into a black 96-well plate, then added with 90 μL of the substrates coelenterazine, fluoro-coelenterazine or coelenterazine derivative ZS2 (purchased from Biolab) which was diluted into 100 μM with the same diluent, and the luminescence intensity of the plate was read with a self-luminescence module of a microplate reader. The mutation site of the mutant, the measured luminescence intensity, the ratio of luminescence intensities of the advantageous mutants to the wild-type Gaussia luciferase without the signal peptide having the sequence shown in SEQ ID NO: 3 are shown in Table 15. The results of catalytic activity assay of the advantageous mutants relative to the wild-type Gaussia luciferase without the signal peptide having the sequence shown in SEQ ID NO: 3 on substrate coelenterazine are shown in FIG. 6. […] The results of catalytic activity assay of the advantageous mutants relative to the wild-type Gaussia luciferase without the signal peptide having the sequence shown in SEQ ID NO: 3 on substrate fluoro-coelenterazine are shown in FIG. 7.
The new mutant library constructed in Example 7 was screened and tested for substrate specificity. Expression and purification schemes were the same as that in Example 5, and the activity assay scheme was the same as that in Example 6. The respective catalytic activities of combinatorial mutants on coelenterazine, fluoro-coelenterazine or coelenterazine derivative ZS2, and coelenterazine derivative ZS26 (purchased from BIOLAB) were assayed, and comparisons among the substrate specificities of the combinatorial mutants were based on the ratios of catalytic activities on two corresponding substrates.

| Molecule | Activity of mutant relative to wild-type Gaussia luciferase without the signal peptide [1] | Activity of mutant relative to wild-type Gaussia luciferase without the signal peptide [2] | Activity of mutant relative to wild-type Gaussia luciferase without the signal peptide [3] |
| --- | --- | --- | --- |
| B1 | 0.063 | 0.072 | 0.065 |
| B2 | 0.082 | 0.198 | 0.763 |
| B3 | 0.452 | 0.750 | 0.479 |
| B4 | 0.064 | 1.921 | 13.108 |
| B5 | 0.068 | 0.094 | 0.936 |
| B6 | 0.001 | 0.000 | 0.007 |
| B7 | 1.065 | 2.527 | 0.520 |
| B8 | 0.044 | 0.053 | 0.067 |
| B9 | 0.147 | 0.152 | 0.172 |
| B10 | 0.126 | 0.119 | 0.143 |
| B11 | 0.177 | 0.219 | 0.192 |
| B12 | 0.116 | 0.138 | 0.615 |
| B13 | 0.224 | 0.231 | 0.210 |
| B14 | 0.001 | 0.000 | 0.009 |
